The assay concerns the target K. lactis 80S ribosome (40S and 60S subunits) (K. lactis). Description: co-sedimentation; 30 pmol eIF5B, 15 pmol K. lactis 80S ribosomes, 0.1 mM GDPNP in 30 uL of 20 mM Hepes pH 7.4, 50 mM KCl, 2 mM DTT, 2.5 mM Mg-acetate, 30 C for 5 min; pelleted through a 1 M sucrose cushion (80,000 rpm, 3 h, 4 C); pellets on SDS/PAGE, Coomassie, bands quantified and normalised to WT.

The substance “eIF5B-DIII-h12-Loop mutant (K. lactis eIF5B 361-967, residues 835-839 in S. cerevisiae numbering / 800-804 in K. lactis substituted to alanine) (domain or fragment)” came in with a fold reduction in ribosomal binding against WT of 2 fold.

“eIF5B-YxA mutant (K. lactis eIF5B 361-967, Tyr837 in S. cerevisiae numbering / Tyr802 in K. lactis substituted to alanine) (domain or fragment)”: the fold reduction in ribosomal binding against WT amounted to 2 fold.

The record behind these values is publication PMC6983393.
